The text below walks through data of paper PMC8795117, “Structures and function of a tailoring oxidase in complex with a nonribosomal peptide synthetase module” (Nature Communications, 2022).

A word on the Kd: it is the concentration at which binding is half-saturated. The low end stands for a tighter complex, the high end for a looser complex.

“And” between values parts separate entries of the source, which are not always exact repeats. Identical values can stand only once.

The experiment addresses T1, BmdC (Thermoactinomyces vulgaris F-5595).
T1 construct: BmdC, FMN-dependent oxidase of the bacillamide pathway, Thermoactinomyces vulgaris F-5595 (WP_022737638.1); RREL domain, 45-residue loop, Ox domain (residues 142-325); Co-purifies with FMN; also called oxidase BmdC; dimeric BmdC; source: E. coli BL21(DE3), purified (IMAC, CBP column, TEV cleavage, gel filtration)
Put plainly: ITC; 600 μM BmdB A2 injected into 60 μM dimeric BmdC, 25 °C, 50 mM Tris-HCl pH 7.5, 200 mM NaCl, 1 mM TCEP; fitted with a binding model using a stoichiometry of 1; triplicate. The note with it: both partners purified. (In general: Isothermal titration calorimetry measures the heat released or taken up as one component is titrated into another.)

B1: BmdB_A2 (domain or fragment)
chain: YNATAEPIPAATLHQLFIDQAQRTPDQVAVVFEQEWLTYSELDQRSNQVARFLQSRGIGRGDRVGVLAKRQVETIINLMAVLKAGAAYVPIDPDHPYERQTYILENSSCKILLDSDLYETMEISSYADGDLTPVAEPEDTAYVIYTSGSTGRPKGVIITHQAASNTIQDINRKFEVNEEDRIIGISSMCFDLSVYDIFGTLSAGATLVMIRDPRDMRELVRTVERRGITIWNTVPAIMDLALDHVGSHFENISLRLVLLSGDWIPLPLPAKINRHFPVADVISLGGATEASIWSIYWPIEQVEANWKSIPYGKPLANQTYYVLNYDQKMCPVGVIGDLYIGGAGLAQGYLNDDQKTKDAFIMHPEFGPIYKTGDCGRMRPEGYIEFLGRQDYQVKIQGYRVELEEISHCLLTYPDVDQAVVIDQTDERGMKFLVGYVVAQQEIDEKALRKHLMEHLPEYMIPAHLVHLEQLPLTPNGKLDRKALPVPKKQRNAEKFV
Consider B1, for which the Kd was ~75 nM and 44 to 118 nM.
